Experimental data from PMC11880434 (Nature Communications, 2025).

Legend:
MbpR = molecular target: T1, MbpR (Lactiplantibacillus plantarum, UniProt F9USQ8); assay: ITC; assay type: binding
T1 sequence (F9USQ8 1-306): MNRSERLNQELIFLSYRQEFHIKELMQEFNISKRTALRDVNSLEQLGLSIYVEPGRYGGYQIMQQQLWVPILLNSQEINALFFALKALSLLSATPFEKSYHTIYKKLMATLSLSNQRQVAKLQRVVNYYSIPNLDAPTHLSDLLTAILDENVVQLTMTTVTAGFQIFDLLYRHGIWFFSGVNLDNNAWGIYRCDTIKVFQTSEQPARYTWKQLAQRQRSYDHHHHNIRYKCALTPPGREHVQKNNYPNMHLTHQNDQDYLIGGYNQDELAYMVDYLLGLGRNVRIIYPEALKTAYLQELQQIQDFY

[1] = molecular target: mucin binding domain of MbpA (L. plantarum WCFS1); assay: MST
[2] = molecular target: mucin binding domain of MbpB (L. plantarum WCFS1); assay: MST

In the case of `Nc1nc2c(ncn2[C@@H]2O[C@@H]3CO[P@](=O)(O)O[C@H]4[C@@H](O)[C@H](n5cnc6c(=O)[nH]c(N)nc65)O[C@@H]4CO[P@](=O)(O)O[C@H]3[C@H]2O)c(=O)[nH]1` [c-di-GMP], the Kd (MbpR) is reported as 220 nM.
mucin (natural protein) was tested, and the Kd [1] was 530 nM and the Kd [2] was 690 nM.
